The assay concerns the target IL-2 receptor (human). As to the kind of experiment: cell-based or functional assay.

The values that follow come from patent US20250136681A1.

On to wild type recombinant IL-2 (ligand), for which the EC50 of pSTAT5 increase on CD56brightCD16- NK cells (intracellular flow cytometry, human PBMCs) came out at 60 pM.
